Experimental data taken from article PMC9745132, “Visualization of real-time receptor endocytosis in dopamine neurons enabled by NTSR1-Venus knock-in mice” (Frontiers in Cellular Neuroscience, 2022).
Where a name gives a salt, the structure may show the parent alone. One block for each molecule: values may come before it.

Key:
[1] = tested on: hippocampal neurons from Ntsr1^Venus/Venus mice; assay: Intracellular calcium release (Fluo-4) in hippocampal neurons from Ntsr1^Venus/Venus mice; assay type: cell-based, mouse; conditions: 1 μM, maximal calcium response control
Experimental: To isolate hippocampal neurons, P0 pups were removed from the cage of NTSR1-Venus homozygous knock-in breeding pairs. Pups were decapitated, brains were removed dorsal side up into fresh ice-cold Hank’s balanced salt solution (HBSS; Gibco, Grand Island, NY, USA), meninges were removed, and hippocampi were dissected into Hibernate A (Gibco, Grand Island, NY, USA) on ice. Tissue dissociation was carried out with the Papain Dissociation System according to the manufacturer’s protocol (Worthington Biochemical Corporation, Lakewood, NJ, USA). Neurons were plated on Poly-D-Lysine (Sigma) coated surfaces at 100,000 cells per 12 mm coverslip (NeuVitro, Camas, WA, USA) in a 24-well plate for immunostaining or 50,000 cells per well of an 8 well chamber slide (Ibidi, Grafelfing, Germany) for calcium measurements. Plating media [Neurobasal A (Gibco, Grand Island, NY, USA), 1% FBS (Fisher Scientific), 2% B-27 (Gibco, Grand Island, NY, USA), 0.5 mM GlutaMAX (Gibco, Grand Island, NY, USA), and 1x Penicillin/Streptomycin (Invitrogen, Waltham, MA, USA)] was exchanged 1 h after plating to maintenance media (Neurobasal A, 2% B-27, 0.5 mM GlutaMAX, and 1x Penicillin/Streptomycin). Half of the volume of media was exchanged for fresh media every 3–4 days. On day in vitro (DIV) 3 Cytosine arabinoside hydrochloride (Sigma) was added to media with a final concentration of 0.1 μM to decrease glial cell proliferation.
Hippocampal neurons were grown until DIV 7. Fluo-4 NW Calcium Assay kit (Thermo Fisher) was used according to the manufacturer’s protocol. Briefly, drugs were prepared at 4 μM stock solutions in the assay buffer provided without probenecid. […] Fluorescence was imaged with a 10x objective on an (Olympus, Shinjuku City, Tokyo, Japan) IX73 microscope (Fluo-4 em. 506 nm).
Live imaging settings of Fluo-4 were as follows, 79 ms exposure, 2 s intervals for 90 cycles (180 s). […] First regions of interest (ROI) were automatically determined using the analyze particles plug in. […] Relative fluorescence is defined as F/F0 where F corresponds to the cell fluorescence and F0 to the basal fluorescence.

[2] = tested on: hippocampal neurons from Ntsr1^WT/WT mice; assay: Intracellular calcium release (Fluo-4) in hippocampal neurons from Ntsr1^WT/WT mice; assay type: cell-based, mouse; conditions: 1 μM, maximal calcium response control
NTSR1-Venus = target: T1, NTSR1-Venus (Mus musculus, UniProt O88319); assay: Multiphoton imaging of NTSR1-Venus internalization in acute SN/VTA brain slices; assay type: cell-based; conditions: 1 μM during slice recovery and imaging, 60 min
T1 construct: monitoring endogenous NTSR1-Venus receptor endocytosis could differentiate NTSR1 agonists; endogenous in cells; host or cells: primary hippocampal neurons from homozygous NTSR1-Venus knock-in mice (C57BL/6N background)
Experimental: Male and female Ntsr1^Venus/Venus mice aged 5 weeks were anesthetized, and 250 μm-thick coronal slices containing substantia nigra pars compacta and ventral tegmental area were prepared. Cutting solution contained (in mM): 87 NaCl, 25 NaHCO3, 25 glucose, 75 sucrose, 2.5 KCl, 1.25 NaH2PO4, 0.5 CaCl2, and 7 MgCl2; bubbled with 5% CO2/95%O2; 4°C. Following cutting, slices were incubated in the same solution for 30 min at 33°C. For control experiments, slices were subsequently incubated in the same solution at room temperature until imaging. For antagonist experiments, slices were subsequently incubated in cutting solution with 1 μM SR48962 until imaging. SR48962 was prepared as a 1 mM stock in water.
Imaging solution referred to as aCSF contained (in mM): 125 NaCl, 2.5 KCl, 2 CaCl2, 1 MgCl2, 25 NaHCO3, 1.25 NaH2PO4, 25 glucose; bubbled with 5% CO2/95% O2; 31–34°C, ∼310 mOsm. For antagonist-only experiments, 1 μM SR48962 was added to the imaging solution. For antagonist plus agonist experiments, a baseline image was taken with no NTSR1 agonist or antagonist in the imaging solution, and subsequently, 10 μM PD149163 [prepared from a stock solution in water] was added to the imaging solution. As a precautionary measure, all components that were exposed to antagonist were rinsed first with 70% ethanol and then water. All components that were exposed to agonist were replaced between experiments.
For two-photon laser scanning microscopy (2PLSM), a 2-photon source (Coherent Ultra II, Santa Clara, CA, USA) was tuned to 920 nm for imaging. […] Both epi and transfluorescence were detected with R9110 photomultiplier tubes (Hamamatsu, Shizuoka, Japan). Laser power measured at the focal plane under the objective was between 8 and 34 mW. […]
To test whether NTSR1 receptors are indeed being bound by endogenous ligand in acute slice, we compared NTSR1 distribution in slices treated with the NTSR1 specific antagonist, SR48692 ([Gully et al., 1993]). […] NTSR1-Venus puncta were then quantified in the acquired image projections by counting vesicle-sized particles (Figure 5E). […]

NTSR1-RlucII (mouse) [3] = target: NTSR1-RlucII (mouse) (UniProt O88319)
NTSR1-RlucII (mouse) [4] = target: NTSR1-RlucII (mouse) (UniProt O88319); remark: listed apart in the source
[5] = target: mouse NTSR1 (untagged) (mouse) (UniProt O88319)
[6] = target: NTSR1-Venus (transfected construct) (mouse) (UniProt O88319)
[7] = target: NTSR1-Venus (knock-in receptor of Ntsr1 Venus/Venus mice) (mouse) (UniProt O88319)
Sequence of NTSR1-Venus (knock-in receptor of Ntsr1 Venus/Venus mice) (mouse) (O88319 whole entry): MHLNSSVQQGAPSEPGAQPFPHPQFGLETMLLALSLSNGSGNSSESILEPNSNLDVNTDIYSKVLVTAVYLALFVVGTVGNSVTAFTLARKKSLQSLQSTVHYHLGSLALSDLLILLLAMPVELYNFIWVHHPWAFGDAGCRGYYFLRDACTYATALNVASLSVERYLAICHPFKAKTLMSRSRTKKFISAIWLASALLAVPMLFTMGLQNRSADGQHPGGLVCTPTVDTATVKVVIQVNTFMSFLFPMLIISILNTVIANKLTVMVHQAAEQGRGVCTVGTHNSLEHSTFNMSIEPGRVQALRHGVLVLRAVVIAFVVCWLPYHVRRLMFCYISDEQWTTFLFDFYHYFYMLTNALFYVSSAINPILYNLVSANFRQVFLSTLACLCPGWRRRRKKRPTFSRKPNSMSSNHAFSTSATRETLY

Sequence of NTSR1-RlucII (mouse) (O88319 whole entry): as above
Sequence of mouse NTSR1 (untagged) (mouse) (O88319 whole entry): as above
T1 sequence (O88319 whole entry): as above
Sequence of NTSR1-Venus (transfected construct) (mouse) (O88319 whole entry): as above

Molecule: C[C@H](CCC(=O)O)C[C@H](C)C[C@H](C)C(=O)/C=C(\O)[C@H](C)C[C@H](C)C/C=C/[C@@H](C)[C@@H](O)[C@@H](C)[C@@H](O)C[C@@H]1CC[C@@](C)([C@H]2CC[C@@](C)([C@@H](C)O)O2)O1 [Ionomycin, Ionomycin calcium salt from Streptomyces conglobatus]
calcium increase [1]: 3 fold
calcium increase [2]: 3 fold

Molecule: COc1cccc(OC)c1-c1cc(C(=O)NC2(C(=O)O)C3CC4CC(C3)CC2C4)nn1-c1ccnc2cc(Cl)ccc12 (stereo not drawn) [SR48692]
NTSR1-Venus puncta across imaging time (NTSR1-Venus): trend of decreasing puncta across imaging time

NTSR1-RlucII internalization in HEK293 cells (decrease in ebBRET between NTSR1-RlucII and rGFP-CAAX), concentration-response; potency as told in the text (NTSR1-RlucII (mouse) [3]): 5.89 nM
NTSR1-RlucII internalization in HEK293 cells (decrease in ebBRET between NTSR1-RlucII and rGFP-CAAX), concentration-response; potency LogEC50 (NTSR1-RlucII (mouse) [4]): -8.07 LogEC50 (M)
Gq activation in HEK293 cells (ebBRET between p63RhoGEF-RlucII and rGFP-CAAX, EMTA), concentration-response; potency LogEC50 [5]: -8.97 LogEC50 (M)
Gq activation in HEK293 cells (ebBRET between p63RhoGEF-RlucII and rGFP-CAAX, EMTA), concentration-response; potency LogEC50 [6]: -8.78 LogEC50 (M)
NTSR1-Venus endocytosis in primary hippocampal neurons (ratio of Venus and EEA1 positive to total EEA1 positive endosomes), dose-response after 5 min of agonist; EC50 [7]: 4.03 nM
NTSR1-Venus redistribution to EEA1 endosomes in primary hippocampal neurons, 1 uM neurotensin, time course 0-60 min; % EEA1 vesicles with Venus (value at 5 min) [7]: 98.5%
Molecule: Neurotensin (from UniProt P30990 151-163) (peptide)
